Results reported in doi:10.1101/2024.06.03.594717.
pKd: −log10 of the molar value.

Columns and labels:
[1] = target: GST-FBXO22-SKP1 (human) (UniProt Q8NEZ5); test: BLI; Octet Red 96, anti-GST probes loaded with 200 nM GST-FBXO22-SKP1, BACH1-BTB as analyte, 30°C; 25 mM HEPES pH 7.4, 100 mM NaCl, 1 mM TCEP, 0.1% Tween-20, 0.05 mg/mL BSA; Kd from steady-state equilibrium
[2] = target: Tag-free FBXO22-SKP1 complex (human) (UniProt Q8NEZ5); test: SEC-MALS; Superdex 200 10/300 GL, 20 mM Tris-HCl pH 8.0, 150 mM NaCl, 0.25 mM TCEP, room temperature; tag-free FBXO22-SKP1, His-BACH1-BTB and their mixture
Chain of Tag-free FBXO22-SKP1 complex (human) (Q8NEZ5 whole entry, chain 1 of 2): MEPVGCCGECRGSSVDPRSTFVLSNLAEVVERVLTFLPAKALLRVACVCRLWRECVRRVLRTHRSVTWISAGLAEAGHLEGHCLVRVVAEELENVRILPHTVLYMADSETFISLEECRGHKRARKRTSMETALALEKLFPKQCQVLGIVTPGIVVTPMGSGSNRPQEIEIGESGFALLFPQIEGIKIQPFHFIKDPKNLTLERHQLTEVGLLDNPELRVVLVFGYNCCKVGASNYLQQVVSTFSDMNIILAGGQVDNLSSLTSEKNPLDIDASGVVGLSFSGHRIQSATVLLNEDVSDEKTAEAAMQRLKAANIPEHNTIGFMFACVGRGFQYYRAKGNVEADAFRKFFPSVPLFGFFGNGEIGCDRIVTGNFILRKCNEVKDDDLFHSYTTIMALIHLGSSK
Chain of Tag-free FBXO22-SKP1 complex (human) (P63208 whole entry, chain 2 of 2, further chain): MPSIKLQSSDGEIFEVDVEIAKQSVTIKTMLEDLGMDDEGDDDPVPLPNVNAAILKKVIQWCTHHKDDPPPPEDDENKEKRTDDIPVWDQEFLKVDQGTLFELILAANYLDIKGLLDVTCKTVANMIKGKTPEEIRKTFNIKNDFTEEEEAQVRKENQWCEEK

Chain of His-BACH1-BTB (O14867 7-128): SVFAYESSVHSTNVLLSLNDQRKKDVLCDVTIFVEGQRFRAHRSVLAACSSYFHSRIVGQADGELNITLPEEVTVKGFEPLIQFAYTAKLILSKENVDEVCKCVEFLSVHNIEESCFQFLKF
Chain of BACH1 BTB domain (O14867 7-128): as above
Chain of GST-FBXO22-SKP1 (human) (Q8NEZ5 whole entry, chain 1 of 2): as the sequence (Q8NEZ5 whole entry, chain 1 of 2) above
Chain of GST-FBXO22-SKP1 (human) (P63208 whole entry, chain 2 of 2, further chain): as the sequence (P63208 whole entry, chain 2 of 2, further chain) above

Row | Substance | pKd [1] | stoichiometry N (FBXO22-SKP1 per BACH1 BTB dimer) [2]
1 | BACH1 BTB domain (from UniProt O14867 7-128) (domain or fragment) | 7.05 | 
2 | His-BACH1-BTB (from UniProt O14867 7-128) (domain or fragment) |  | 1
